US20260167693A1 (ANGELES THERAPEUTICS, published 2026)
Substitutions are numbered along the chain they refer to. Numbers in names are those of the source.

T1: CD19-ECD-GGSG-NLuc-AcV5 (human)
T1 construct: also called CD19-GGSG-NLuc-AcV5; Flag-CD19-GGSG-NLuc-AcV5
T1 chain: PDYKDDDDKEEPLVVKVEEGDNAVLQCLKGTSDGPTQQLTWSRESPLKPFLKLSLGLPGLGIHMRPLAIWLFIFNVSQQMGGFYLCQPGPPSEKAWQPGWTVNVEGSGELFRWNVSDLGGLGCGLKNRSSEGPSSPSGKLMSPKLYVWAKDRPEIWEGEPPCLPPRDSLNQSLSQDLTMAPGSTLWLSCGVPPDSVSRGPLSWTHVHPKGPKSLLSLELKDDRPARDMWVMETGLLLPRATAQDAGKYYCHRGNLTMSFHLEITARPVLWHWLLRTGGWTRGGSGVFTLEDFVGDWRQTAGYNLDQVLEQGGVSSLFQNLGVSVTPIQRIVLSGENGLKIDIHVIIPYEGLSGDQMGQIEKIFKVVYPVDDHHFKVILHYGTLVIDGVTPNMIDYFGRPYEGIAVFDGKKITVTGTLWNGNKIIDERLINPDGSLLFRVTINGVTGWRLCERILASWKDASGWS

T2: human CD19 (human, UniProt P15391 20-556)
T2 sequence (looked up): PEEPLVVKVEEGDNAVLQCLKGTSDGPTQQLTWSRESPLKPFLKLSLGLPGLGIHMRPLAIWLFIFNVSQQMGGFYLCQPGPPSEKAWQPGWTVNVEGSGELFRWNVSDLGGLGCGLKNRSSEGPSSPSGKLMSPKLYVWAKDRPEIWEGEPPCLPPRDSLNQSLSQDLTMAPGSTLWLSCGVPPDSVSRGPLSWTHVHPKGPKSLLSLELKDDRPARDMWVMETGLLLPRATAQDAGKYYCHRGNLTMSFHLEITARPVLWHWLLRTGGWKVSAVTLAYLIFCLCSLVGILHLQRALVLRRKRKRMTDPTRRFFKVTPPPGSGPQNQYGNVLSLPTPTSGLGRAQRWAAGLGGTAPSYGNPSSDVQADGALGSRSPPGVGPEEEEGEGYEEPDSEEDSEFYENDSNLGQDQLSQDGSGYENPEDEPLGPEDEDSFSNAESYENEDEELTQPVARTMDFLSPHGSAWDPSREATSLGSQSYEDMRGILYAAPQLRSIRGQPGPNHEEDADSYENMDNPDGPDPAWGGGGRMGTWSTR

B1: CD8SP-FMC63-vL-V5-[hTCRb-WT]-F-P2A-SP-FMC63-vH-Myc-[hTCRa-WT]-F-F2A-PAC (080815-F02)[SEQ ID NO:922] (other)
TCR beta: DIQMTQTTSSLSASLGDRVTISCRASQDISKYLNWYQQKPDGTVKLLIYHTSRLHSGVPSRFSGSGSGTDYSLTISNLEQEDIATYFCQQGNTLPYTFGGGTKLEITGKPIPNPLLGLDSTGSGEDLKNVFPPEVAVFEPSEAEISHTQKATLVCLATGFYPDHVELSWWVNGKEVHSGVSTDPQPLKEQPALNDSRYCLSSRLRVSATFWQNPRNHFRCQVQFYGLSENDEWTQDRAKPVTQIVSAEAWGRADCGFTSESYQQGVLSATILYEILLGKATLYAVLVSALVLMAMVKRKDSRG
TCR alpha: EVKLQESGPGLVAPSQSLSVTCTVSGVSLPDYGVSWIRQPPRKGLEWLGVIWGSETTYYNSALKSRLTIIKDNSKSQVFLKMNSLQTDDTAIYYCAKHYYYGGSYAMDYWGQGTSVTVSSEQKLISEEDGSGIQNPDPAVYQLRDSKSSDKSVCLFTDFDSQTNVSQSKDSDVYITDKTVLDMRSMDFKSNSAVAWSNKSDFACANAFNNSIIPEDTFFPSPESSCDVKLVEKSFETDTNLNFQNLSVIGFRILLLKVAGFNLLMTLRLWSS
notes: SIR with wild-type TCR constant chains; Polyprotein PRT 3157
B2: CD8SP-FMC63-vH-MYC-[TCRα-CSDVP]-F-F2A-BlastR (other)
TCR alpha: B1 TCR alpha with T179C, P222S, E223D, S224V, S225P
notes: One functional polypeptide unit alone in Jurkat-NFAT-GFP cells; PRT 3232; also called 041916-A02
B3: CD8SP-FMC63-vL-V5-[hTCRb-KACIAH]-F-P2A-PAC (other)
TCR beta: B1 TCR beta with E142K, S146A, S181C, F257I, E260A, Q263H
notes: One functional polypeptide unit alone in Jurkat-NFAT-GFP cells; PRT 3148; also called 050216-S08
B4: CD8SP-hu-FMC65-1-vL-[hTCRb-D59C]-F-P2A-SP-hu-FMC65-1-vH-[hTCRa-T45C] (other)
TCR beta: DVVMTQSPSSLSASVGDRVTITCRASQDISKYLNWYQQKPGKAPKLLIYHTSRLHSGVPSRFSGSGSGTDFTLTISSLQPEDFATYYCQQGNTLPYTFGGGTKVEIKEDLKNVFPPEVAVFEPSEAEISHTQKATLVCLATGFYPDHVELSWWVNGKEVHSGVSTCPQPLKEQPALNDSRYCLSSRLRVSATFWQNPRNHFRCQVQFYGLSENDEWTQDRAKPVTQIVSAEAWGRADCGFTSESYQQGVLSATILYEILLGKATLYAVLVSALVLMAMVKRKDSRG
TCR alpha: QVQLQESGPGLVKPSQTLSLTCTVSGVSLPDYGVSWIRQPPGKGLEWIGVIWGSETTYYNSALKSRVLISVDTSKNQVSLKLSSVTAADTAVYYCARHYYYGGSYAMDYWGQGTTVTVSSIQNPDPAVYQLRDSKSSDKSVCLFTDFDSQTNVSQSKDSDVYICDKTVLDMRSMDFKSNSAVAWSNKSDFACANAFNNSIIPEDTFFPSPESSCDVKLVEKSFETDTNLNFQNLSVIGFRILLLKVAGFNLLMTLRLWSS
B5: CD8SP-hu-FMC65-1-vL-[hTCRb-S77C]-F-P2A-SP-hu-FMC65-1-vH-[hTCRa-T45C] (other)
TCR beta: B4 TCR beta with C166D, S184C
TCR alpha: B4 TCR alpha
B6: CD8SP-hu-FMC65-1-vL-[hTCRb-E15C]-F-P2A-SP-hu-FMC65-1-vH-[hTCRa-S15C] (other)
TCR beta: B4 TCR beta with E122C, C166D
TCR alpha: B4 TCR alpha with S134C, C164T
B7: CD8SP-hu-FMC65-1-vL-[hTCRb-S17C]-F-P2A-SP-hu-FMC65-1-vH-[hTCRa-Y10C] (other)
TCR beta: B4 TCR beta with S124C, C166D
TCR alpha: B4 TCR alpha with Y129C, C164T

How the values were obtained:
[1] = target: T1, CD19-ECD-GGSG-NLuc-AcV5; experiment: NLuc binding assay, SIR on Jurkat-NFAT-Luc cells
[2] = target: T1, CD19-ECD-GGSG-NLuc-AcV5; experiment: NLuc binding assay, SIR on Jurkat-NFAT-GFP cells
[3] = target: T1, CD19-ECD-GGSG-NLuc-AcV5; experiment: NLuc binding assay, single chain unit in Jurkat-NFAT-GFP cells
[4] = target: T2, human CD19; experiment: cell-based or functional assay

Binder | NFAT-GFP (%) after co-culture with RAJI cells [4] | other results
B1 | – | binding result [1]: no binding; CD19-GGSG-NLuc (RLU) [2]: 768 RLU
B2 | – | binding result [3]: no binding
B3 | – | binding result [3]: no binding
B4 | 1.35% | –
B5 | 0.9% | –
B6 | 2.48% | –
B7 | 1.99% | –
